The target in this experiment is T1, Human THADA (FLAG- and streptavidin-binding-sequence-tagged, co-expressed with FTSJ1) (human, UniProt Q6YHU6 1-1953).
T1 construct: THADA, human; gene PCR-amplified and cloned into a modified pcDNA3.4 vector; no TEV cleavage step is described; also called Trm732 (yeast name); not shown: FLAG, N-terminal, kept
Briefly: SEC; FTSJ1 and THADA co-expressed in HEK293F, purified on anti-FLAG beads, then HiLoad 16/600 Superdex 200pg in 20 mM Tris-HCl pH 7.5, 150 mM NaCl, 2 mM DTT; fractions analysed by SDS-PAGE. The following applies: both partners purified.

T1 sequence (Q6YHU6 whole entry): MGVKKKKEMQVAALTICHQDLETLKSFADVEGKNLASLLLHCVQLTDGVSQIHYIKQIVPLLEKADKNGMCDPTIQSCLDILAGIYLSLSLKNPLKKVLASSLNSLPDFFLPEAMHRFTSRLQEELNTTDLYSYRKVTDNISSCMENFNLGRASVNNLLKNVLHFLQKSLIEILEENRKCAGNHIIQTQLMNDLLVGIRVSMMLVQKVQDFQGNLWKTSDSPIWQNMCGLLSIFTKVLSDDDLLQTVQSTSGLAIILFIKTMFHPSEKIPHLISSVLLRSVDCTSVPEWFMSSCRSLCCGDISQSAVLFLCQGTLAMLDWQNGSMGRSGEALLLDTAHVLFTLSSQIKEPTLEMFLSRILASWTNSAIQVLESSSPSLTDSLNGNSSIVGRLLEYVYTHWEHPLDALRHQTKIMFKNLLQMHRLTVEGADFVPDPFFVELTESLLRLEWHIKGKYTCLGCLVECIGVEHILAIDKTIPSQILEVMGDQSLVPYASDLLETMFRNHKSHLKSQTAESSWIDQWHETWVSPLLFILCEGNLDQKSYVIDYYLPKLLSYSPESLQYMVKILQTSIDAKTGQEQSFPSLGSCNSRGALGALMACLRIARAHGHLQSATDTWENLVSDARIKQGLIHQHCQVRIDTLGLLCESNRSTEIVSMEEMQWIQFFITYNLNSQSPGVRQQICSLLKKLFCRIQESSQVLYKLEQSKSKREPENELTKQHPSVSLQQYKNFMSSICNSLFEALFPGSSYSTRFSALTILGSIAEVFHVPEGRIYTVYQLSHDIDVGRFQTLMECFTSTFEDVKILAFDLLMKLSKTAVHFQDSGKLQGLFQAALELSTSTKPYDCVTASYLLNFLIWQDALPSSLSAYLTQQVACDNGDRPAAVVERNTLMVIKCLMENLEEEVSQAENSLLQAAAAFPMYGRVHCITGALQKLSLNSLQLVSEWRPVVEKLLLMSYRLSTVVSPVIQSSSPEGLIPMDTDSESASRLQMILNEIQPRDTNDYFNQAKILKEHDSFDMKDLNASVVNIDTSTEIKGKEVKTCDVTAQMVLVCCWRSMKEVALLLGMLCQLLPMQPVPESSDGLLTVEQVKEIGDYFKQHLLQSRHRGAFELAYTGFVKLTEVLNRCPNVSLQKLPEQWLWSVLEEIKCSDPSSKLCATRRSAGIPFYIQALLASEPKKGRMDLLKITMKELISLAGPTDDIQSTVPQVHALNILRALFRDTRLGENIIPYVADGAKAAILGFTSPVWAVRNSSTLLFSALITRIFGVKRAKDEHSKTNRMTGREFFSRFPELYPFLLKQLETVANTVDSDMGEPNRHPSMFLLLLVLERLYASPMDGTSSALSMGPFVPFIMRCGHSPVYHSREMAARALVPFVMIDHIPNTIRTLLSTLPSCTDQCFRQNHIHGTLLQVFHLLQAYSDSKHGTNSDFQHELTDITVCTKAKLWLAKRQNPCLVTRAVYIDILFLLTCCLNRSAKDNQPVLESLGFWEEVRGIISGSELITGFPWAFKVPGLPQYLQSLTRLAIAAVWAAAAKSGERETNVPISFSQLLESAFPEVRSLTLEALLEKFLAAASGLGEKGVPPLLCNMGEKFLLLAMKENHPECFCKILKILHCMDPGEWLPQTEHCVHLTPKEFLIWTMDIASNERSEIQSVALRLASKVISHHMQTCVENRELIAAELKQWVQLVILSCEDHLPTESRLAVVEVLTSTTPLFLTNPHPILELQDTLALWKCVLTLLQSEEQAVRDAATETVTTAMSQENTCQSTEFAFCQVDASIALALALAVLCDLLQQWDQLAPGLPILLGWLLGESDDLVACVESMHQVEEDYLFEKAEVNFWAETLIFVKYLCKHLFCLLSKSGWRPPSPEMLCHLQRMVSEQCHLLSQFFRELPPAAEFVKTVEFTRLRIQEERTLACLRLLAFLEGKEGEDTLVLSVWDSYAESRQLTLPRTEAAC

B1: Human FTSJ1 (FLAG-tagged, co-expressed with THADA) (enzyme)
chain: MGRTSKDKRDVYYRLAKENGWRARSAFKLLQLDKEFQLFQGVTRAVDLCAAPGSWSQVLSQKIGGQGSGHVVAVDLQAMAPLPGVVQIQGDITQLSTAKEIIQHFKGCPADLVVCDGAPDVTGLHDVDEYMQAQLLLAALNIATHVLKPGGCFVAKIFRGRDVTLLYSQLQVFFSSVLCAKPRSSRNSSIEAFAVCQGYDPPEGFIPDLSKPLLDHSYDPDFNQLDGPTRIIVPFVTCGDLSSYDSDRSYPLDLEGGSEYKYTPPTQPPISPPYQEACTLKRKGQLAKEIRPQDCPISRVDTFPQPLAAPQCHTLLAPEMEDNEMSCSP
notes: FTSJ1, human; gene PCR-amplified and cloned into a modified pcDNA3.4 vector; no TEV cleavage step is described in the purification; also called Trm7 (yeast name); not shown: FLAG, N-terminal, kept
With B1, the binding result was “binds”.
